B1: Twister Ribozyme (parent)
chain: AACACUGCCAAUGCCGGUCCCAAGCCCGGAUAAAAGUGGAGGGGGCGG

Variants of: B1
Assay: self-cleavage, relative activity (ratio to wild type); higher = more cleavage; co-transcriptional

Point of comparison: AACACUGCCAAUGCCGGUCCCAAGCCCGCAUAGAAGUGGAGGGGGCGG [G29C A33G], self-cleavage 0.573. Against it:
- AACACUGCCAAUGCCGGUCCCAAGCCCGUAUAAAAGUGGAGGGGGCCG [G29U G47C] — lower, 0.364
- AACACUGCCAAUGCCGGUCCCAAGCCCGUAUAAAAGUGGAGGGGGCUG [G29U G47U] — higher, 0.694
- AACACUGCCAAUGCCGGUCCCAAGCCCGUAUAAAAGUGGAGGGGGCAG [G29U G47A] — higher, 0.71
- AACACUGCCAAUGCCGGUCCCAAGCCCGUAUAAAAGUGGAGGGGCCGG [G29U G45C] — lower, 0.294
- AACACUGCCAAUGCCGGUCCCAAGCCCGUAUAAAAGUGGAGGGGACGG [G29U G45A] — higher, 0.812
- AACACUGCCAAUGCCGGUCCCAAGCCCGUAUAAAAGUGGAGGGGUCGG [G29U G45U] — higher, 0.574
- AACACUGCCAAUGCCGGUCCCAAGCCCGUAUAAAAGUGGAGGUGGCGG [G29U G43U] — lower, 0.299
- AACACUGCCAAUGCCGGUCCCAAGCCCGGCUAAAAGUGGAGGGGGCGC [A30C G48C] — higher, 0.933
- AACACUGCCAAUGCCGGUCCCAAGCCCGGCUAAAAGUGGAGGGGGCGU [A30C G48U] — higher, 0.759
- AACACUGCCAAUGCCGGUCCCAAGCCCGCAUAAAAGUGGAGGCGGCGG [G29C G43C] — lower, 0.118
- AACACUGCCAAUGCCGGUCCCAAGCCCGCAUAAAAGUGGAGGAGGCGG [G29C G43A] — lower, 0.119
- AACACUGCCAAUGCCGGUCCCAAGCCCGAAUAAAAGUGGAGGGGGGGG [G29A C46G] — higher, 0.838
- AACACUGCCAAUGCCGGUCCCAAGCCCGCUUAAAAGUGGAGGGGGCGG [G29C A30U] — higher, 1.1
- AACACUGCCAAUGCCGGUCCCAAGCCCGCGUAAAAGUGGAGGGGGCGG [G29C A30G] — higher, 0.91
- AACACUGCCAAUGCCGGUCCCAAGCCCGAAAAAAAGUGGAGGGGGCGG [G29A U31A] — higher, 1.17
- AACACUGCCAAUGCCGGUCCCAAGCCCGAAGAAAAGUGGAGGGGGCGG [G29A U31G] — higher, 0.926
- AACACUGCCAAUGCCGGUCCCAAGCCCGAACAAAAGUGGAGGGGGCGG [G29A U31C] — higher, 0.986
- AACACUGCCAAUGCCGGUCCCAAGCCCGGCUAAAAGCGGAGGGGGCGG [A30C U37C] — lower, 0.154
- AACACUGCCAAUGCCGGUCCCAAGCCCGGCUAAAAGAGGAGGGGGCGG [A30C U37A] — lower, 0.231
- AACACUGCCAAUGCCGGUCCCAAGCCCGGCUAAAAGUGGAGGGAGCGG [A30C G44A] — higher, 1.01
- AACACUGCCAAUGCCGGUCCCAAGCCCGCAUAUAAGUGGAGGGGGCGG [G29C A33U] — higher, 0.579
- AACACUGCCAAUGCCGGUCCCAAGCCCGCAUAAAAGUGGAGGGAGCGG [G29C G44A] — higher, 0.791
- AACACUGCCAAUGCCGGUCCCAAGCCCGCAUAAAAGUGGAGGGCGCGG [G29C G44C] — higher, 0.696
- AACACUGCCAAUGCCGGUCCCAAGCCCGAAUAAAAGUGGAGGGGGCGC [G29A G48C] — higher, 1.1
- AACACUGCCAAUGCCGGUCCCAAGCCCGAAUAAAAGUGGAGGGGGCGU [G29A G48U] — higher, 0.916
- AACACUGCCAAUGCCGGUCCCAAGCCCGGCUAAGAGUGGAGGGGGCGG [A30C A34G] — lower, 0.326
- AACACUGCCAAUGCCGGUCCCAAGCCCGUCUAAAAGUGGAGGGGGCGG [G29U A30C] — higher, 1.06
- AACACUGCCAAUGCCGGUCCCAAGCCCGUUUAAAAGUGGAGGGGGCGG [G29U A30U] — higher, 0.912
- AACACUGCCAAUGCCGGUCCCAAGCCCGUAUAAAAGUGGAGGGCGCGG [G29U G44C] — higher, 0.858
- AACACUGCCAAUGCCGGUCCCAAGCCCGUAUAAAAGUGGAGGGAGCGG [G29U G44A] — higher, 0.79
- AACACUGCCAAUGCCGGUCCCAAGCCCGGGUAAAAGUGGAGGGGGCGG [A30G] — higher, 0.952
- AACACUGCCAAUGCCGGUCCCAAGCCCGGCUAAAAGUGGAGGGGGCGG [A30C] — higher, 0.911
- AACACUGCCAAUGCCGGUCCCAAGCCCGCAUAAAAGUGCAGGGGGCGG [G29C G39C] — lower, 0.14
- AACACUGCCAAUGCCGGUCCCAAGCCCGGCUAAAAGUGGAGGGGGCCG [A30C G47C] — lower, 0.17
- AACACUGCCAAUGCCGGUCCCAAGCCCGCAUAAAUGUGGAGGGGGCGG [G29C A35U] — higher, 0.885
- AACACUGCCAAUGCCGGUCCCAAGCCCGCAUAAAGGUGGAGGGGGCGG [G29C A35G] — lower, 0.544
- AACACUGCCAAUGCCGGUCCCAAGCCCGCAUAAACGUGGAGGGGGCGG [G29C A35C] — higher, 0.701
- AACACUGCCAAUGCCGGUCCCAAGCCCGCAUAAAAGUGGAGGGGCCGG [G29C G45C] — lower, 0.211
- AACACUGCCAAUGCCGGUCCCAAGCCCGCAUAAAAGUGGAUGGGGCGG [G29C G41U] — lower, 0.125
- AACACUGCCAAUGCCGGUCCCAAGCCCGCAUAAAAGUGGAAGGGGCGG [G29C G41A] — lower, 0.108
- AACACUGCCAAUGCCGGUCCCAAGCCCGGCUAAAAGUGGGGGGGGCGG [A30C A40G] — lower, 0.189
- AACACUGCCAAUGCCGGUCCCAAGCCCGGCUAAAAGUGGCGGGGGCGG [A30C A40C] — lower, 0.103
- AACACUGCCAAUGCCGGUCCCAAGCCCGGCUAAAAGUGGUGGGGGCGG [A30C A40U] — lower, 0.0909
- AACACUGCCAAUGCCGGUCCCAAGCCCGAAUAAAAUUGGAGGGGGCGG [G29A G36U] — lower, 0.265
- AACACUGCCAAUGCCGGUCCCAAGCCCGAAUAAAAGUGGAGGGGUCGG [G29A G45U] — higher, 0.578
- AACACUGCCAAUGCCGGUCCCAAGCCCGAAUAAAAGUGGAGGGGACGG [G29A G45A] — higher, 0.724
- AACACUGCCAAUGCCGGUCCCAAGCCCGGGUGAAAGUGGAGGGGGCGG [A30G A32G] — higher, 1.02
- AACACUGCCAAUGCCGGUCCCAAGCCCGGGUUAAAGUGGAGGGGGCGG [A30G A32U] — higher, 0.962
- AACACUGCCAAUGCCGGUCCCAAGCCCGAAUAAAAGUGCAGGGGGCGG [G29A G39C] — lower, 0.166
- AACACUGCCAAUGCCGGUCCCAAGCCCGAAUAAAAGUGAAGGGGGCGG [G29A G39A] — lower, 0.381
- AACACUGCCAAUGCCGGUCCCAAGCCCGUAAAAAAGUGGAGGGGGCGG [G29U U31A] — higher, 0.999
- AACACUGCCAAUGCCGGUCCCAAGCCCGGCUAAAAGUUGAGGGGGCGG [A30C G38U] — higher, 0.715
- AACACUGCCAAUGCCGGUCCCAAGCCCGGCUAAAAGUAGAGGGGGCGG [A30C G38A] — higher, 0.649
